From patent US7192728B2, “Screening assays for agents that alter inhibitor of apoptosis (IAP) protein regulation of caspase activity” (The Burnham Institute, priority 1997, dated 2007)

Legend:
caspase-3 [1] = target: T1, caspase-3 (Homo sapiens, UniProt P42574); assay: Inhibition of purified recombinant caspase-3, DEVD substrate hydrolysis and progress curves; assay type: biochemical; conditions: DEVD-pNA hydrolysis
T1 construct: to produce the 17–20 kDa mature, fully processed large subunit of the active caspase-3 enzyme; a smaller, fully processed, subunit of about 11 kDa; His6; made in house; host or cells: E. coli BL21(DE3)pLysS
T1 sequence (P42574 29-175 limits assumed): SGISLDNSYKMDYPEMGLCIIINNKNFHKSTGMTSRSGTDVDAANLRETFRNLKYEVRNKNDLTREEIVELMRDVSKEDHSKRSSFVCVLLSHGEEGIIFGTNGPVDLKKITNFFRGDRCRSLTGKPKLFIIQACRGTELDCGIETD
T1 sequence (P42574 176-277 limits assumed): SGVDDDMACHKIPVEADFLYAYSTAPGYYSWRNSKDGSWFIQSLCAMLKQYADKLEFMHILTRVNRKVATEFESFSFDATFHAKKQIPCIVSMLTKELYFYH
Experimental: Purified recombinant caspase-1, caspase-3, caspase-6, caspase-7 or caspase-8 were incubated with DEVD-pNA, either alone or with a 10-fold to 50-fold molar excess of GST-XIAP ([…]) and substrate hydrolysis was measured. Purified active caspase concentrations ranged from 0.1 nM to 10 nM. XIAP concentration ranged from 0.1 nM to 500 nM. Assays were performed in caspase buffer (50 mM Tris, pH 7.4, 100 mM NaCl, 10% sucrose, 5–10 mM DTT, 1 mM EDTA and 0.1% CHAPS).
Equilibria were determined from progress curves when substrate hydrolysis reached a steady-state; slopes were calculated by curve fit analysis using the cricket graph program. Experiments were performed using purified recombinant caspase-3, caspase-6, or caspase-7. DEVD-AFC hydrolysis was measured using 0.1 nM caspase and a range of concentrations (0.2 to 12 μM) of recombinant XIAP (rXIAP). […] Average ratio velocities (vi/vo, where “vi” indicates presence of GST-XIAP and “vo” indicates absence of GST-XIAP) were determined.
Caspase activity was determined essentially as described in Example II, using the benzylyoxycarbonyl-DEVD-AFC (SEQ ID NO: 2) substrate and was assayed at 37° C. using the Perkin-Elmer LS50B fluorometric plate reader in the kinetic mode with excitation and emission wavelengths of 400 nm and 505 nm, respectively. […] Reactions were performed in caspase buffer (50 mM Hepes, 100 mM NaCl, 1 mM EDTA, 0.1% CHAPS, 10% sucrose, 5 mM DTT). The inhibition constant, Ki, was calculated as described (Zhou et al., supra, 1997). Immunoblot analysis was performed as described in Example I.B.3.

caspase-7 [2] = target: T2, caspase-7 (Homo sapiens, UniProt P55210); assay: Inhibition of purified recombinant caspase-7, DEVD substrate hydrolysis and progress curves; assay type: biochemical; conditions: DEVD-pNA hydrolysis
T2 construct: Purified active caspase concentrations ranged from 0.1 nM to 10 nM; His6; made in house; host or cells: E. coli BL21(DE3)pLysS
T2 sequence (P55210 24-198 limits assumed): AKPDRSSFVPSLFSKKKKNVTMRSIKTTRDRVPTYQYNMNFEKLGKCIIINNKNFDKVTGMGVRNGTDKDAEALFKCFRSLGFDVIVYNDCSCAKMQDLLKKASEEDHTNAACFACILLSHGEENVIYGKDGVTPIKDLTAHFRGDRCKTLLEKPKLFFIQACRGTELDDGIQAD
T2 sequence (P55210 207-303 limits assumed): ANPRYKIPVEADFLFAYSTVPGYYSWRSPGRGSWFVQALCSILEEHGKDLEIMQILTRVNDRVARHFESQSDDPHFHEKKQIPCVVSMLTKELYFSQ
Experimental: Purified recombinant caspase-1, caspase-3, caspase-6, caspase-7 or caspase-8 were incubated with DEVD-pNA, either alone or with a 10-fold to 50-fold molar excess of GST-XIAP (20 μM) and substrate hydrolysis was measured. Purified active caspase concentrations ranged from 0.1 nM to 10 nM. XIAP concentration ranged from 0.1 nM to 500 nM. Assays were performed in caspase buffer (50 mM Tris, pH 7.4, 100 mM NaCl, 10% sucrose, 5–10 mM DTT, 1 mM EDTA and 0.1% CHAPS).

caspase-3 [3] = target: T1, caspase-3; assay: GST pull-down binding to caspase-3; conditions: glutathione-Sepharose beads, immunoblot
Experimental: (§1) Following incubation at 4° C. for 60 min, the beads were removed by centrifugation and washed twice with 100 vol 50 mM Tris (pH 7.5), 150 mM KCl, 2 mM DTT and 0.025% Triton-X100, then subjected to SDS-PAGE and immunoblot assay (see Example I.B.3).

[4] = test system: DEVD-pNA hydrolysis activity in 293 cell cytosolic extracts; assay: Cytochrome c/dATP-induced caspase activation (DEVD hydrolysis) in 293 cell cytosolic extracts; assay type: biochemical, human; conditions: 3 μM; extracts activated 30 min with cytochrome c and dATP
Experimental: Cells were washed with ice cold buffer A (20 mM Hepes (pH 7.5), 10 mM KCl, 1.5 mM MgCl2, 1 mM EDTA, 1 mM DTT and 0.1 mM PMSF) and suspended in 1 vol buffer A, then incubated on ice for 20 min. 293 cells were disrupted by passage 15× through a 26 gauge needle and Jurkat T cells were disrupted by dounce homogenization in 2 ml using 15 strokes with a pestle B. Cell extracts (10–15 mg total protein/ml) were clarified by centrifugation at 16,000×g for 30 min, then the NaCl concentration was increased by 50 mM. Cytosolic fractions were used immediately or stored frozen at −80° C.
Caspase activity was assayed by release of either 7-amino-4-trifluoromethyl-coumarin (AFC) or p-nitroanilide (pNA) from benzylyoxycarbonyl-DEVD (SEQ ID NO: 2) or benzylyoxycarbonyl-YVAD (SEQ ID NO: 3) synthetic peptides using a Molecular Devices Spectromax 340 for AFC labeled peptides or Perkin/Elmer LS50B for pNA labeled peptides (see Example II; see, also, Zhou et al., supra, 1997). Cytosolic extracts from 293 cells or Jurkat T cells were used directly (negative control) or were treated with 1 μM cytochrome c and 1 mM dATP or with cytochrome c, dATP and 0.2 μM GST-XIAP. Additional control reactions were performed by substituting 2 μM GST-Bcl-2, GST-Bax, GST-NM23 or GST-CD40 cytosolic domain, or 5 μM His6-S5a protein for GST-XIAP. DEVD-pNA hydrolysis was measured at various times and multiple experiments were performed using several different GST-XIAP preparations.

caspase-7 [5] = target: T2, caspase-7; assay: GST pull-down binding to caspase-7; conditions: glutathione-Sepharose beads, immunoblot
Experimental: as §1

[6] = listed as GST-fusion containing the RING domain

Molecule | inhibition of caspase-3 in vitro (in words) (caspase-3 [1]) | inhibition of caspase-7 in vitro (in words) (caspase-7 [2]) | binding of caspase-3 (in words) (caspase-3 [3]) | DEVD hydrolysis in activated 293 cell cytosolic extracts (in words) [4] | binding of caspase-7 (in words) (caspase-7 [5]) | inhibition of caspase-3 in vitro (in words) (caspase-3 [1]; [6]) | inhibition of caspase-7 in vitro (in words) (caspase-7 [2]; [6])
GST fusion protein containing only the three BIR domains of XIAP: GST fusion of XIAP amino acids 1–337 (three BIR domains) (protein, UniProt P98170 1-337, looked up, fragment, GST fusion) MTFNSFEGSKTCVPADINKEEEFVEEFNRLKTFANFPSGSPVSASTLARAGFLYTGEGDTVRCFSCHAAVDRWQYGDSAVGRHRKVSPNCRFINGFYLENSATQSTNSGIQNGQYKVENYLGSRDHFALDRPSETHADYLLRTGQVVDISDTIYPRNPAMYSEEARLKSFQNWPDYAHLTPRELASAGLYYTGIGDQVQCFCCGGKLKNWEPCDRAWSEHRRHFPNCFFVLGRNLNIRSESDAVSSDRNFPNSTNLPRNPSMADYEARIFTFGTWIYSVNKEQLARAGFYALGEGDKVKCFHCGGGLTDWKPSEDPWEQHAKWYPGCKYLLEQKGQE | potently inhibited | potently inhibited | – | – | – | – | –
c-IAP-2(BIR): construct comprising the BIR domains of c-IAP-2 (positions 1 to 335) (protein, left off: a dimerising Fc or GST) MNIVENSIFLSNLMKSANTFELKYDLSCELYRMSTYSTFPAGVPVSERSLARAGFYYTGVNDKVKCFCCGLMLDNWKRGDSPTEKHKKLYPSCRFVQSLNSVNNLEATSQPTFPSSVTNSTHSLLPGTENSGYFRGSYSNSPSNPVNSRANQDFSALMRSSYHCAMNNENARLLTFQTWPLTFLSPTDLAKAGFYYIGPGDRVACFACGGKLSNWEPKDNAMSEHLRHFPKCPFIENQLQDTSRYTVSNLSMQTHAARFKTFFNWPSSVLVNPEQLASAGFYYVGNSDDVKCFCCDGGLRCWESGDDPWVQHAKWFPRCEYLIRIKGQEFIRQVQ | – | – | bound | inhibited DEVD hydrolysis | bound | – | –
NAIP: neuronal apoptosis inhibitory protein, GST construct (protein, UniProt Q13075 1-1403, looked up, GST tag) Baculoviral IAP …: MATQQKASDERISQFDHNLLPELSALLGLDAVQLAKELEEEEQKERAKMQKGYNSQMRSEAKRLKTFVTYEPYSSWIPQEMAAAGFYFTGVKSGIQCFCCSLILFGAGLTRLPIEDHKRFHPDCGFLLNKDVGNIAKYDIRVKNLKSRLRGGKMRYQEEEARLASFRNWPFYVQGISPCVLSEAGFVFTGKQDTVQCFSCGGCLGNWEEGDDPWKEHAKWFPKCEFLRSKKSSEEITQYIQSYKGFVDITGEHFVNSWVQRELPMASAYCNDSIFAYEELRLDSFKDWPRESAVGVAALAKAGLFYTGIKDIVQCFSCGGCLEKWQEGDDPLDDHTRCFPNCPFLQNMKSSAEVTPDLQSRGELCELLETTSESNLEDSIAVGPIVPEMAQGEAQWFQEAKNLNEQLRAAYTSASFRHMSLLDISSDLATDHLLGCDLSIASKHISKPVQEPLVLPEVFGNLNSVMCVEGEAGSGKTVLLKKIAFLWASGCCPLLNRFQLVFYLSLSSTRPDEGLASIICDQLLEKEGSVTEMCVRNIIQQLKNQVLFLLDDYKEICSIPQVIGKLIQKNHLSRTCLLIAVRTNRARDIRRYLETILEIKAFPFYNTVCILRKLFSHNMTRLRKFMVYFGKNQSLQKIQKTPLFVAAICAHWFQYPFDPSFDDVAVFKSYMERLSLRNKATAEILKATVSSCGELALKGFFSCCFEFNDDDLAEAGVDEDEDLTMCLMSKFTAQRLRPFYRFLSPAFQEFLAGMRLIELLDSDRQEHQDLGLYHLKQINSPMMTVSAYNNFLNYVSSLPSTKAGPKIVSHLLHLVDNKESLENISENDDYLKHQPEISLQMQLLRGLWQICPQAYFSMVSEHLLVLALKTAYQSNTVAACSPFVLQFLQGRTLTLGALNLQYFFDHPESLSLLRSIHFPIRGNKTSPRAHFSVLETCFDKSQVPTIDQDYASAFEPMNEWERNLAEKEDNVKSYMDMQRRASPDLSTGYWKLSPKQYKIPCLEVDVNDIDVVGQDMLEILMTVFSASQRIELHLNHSRGFIESIRPALELSKASVTKCSISKLELSAAEQELLLTLPSLESLEVSGTIQSQDQIFPNLDKFLCLKELSVDLEGNINVFSVIPEEFPNFHHMEKLLIQISAEYDPSKLVKLIQNSPNLHVFHLKCNFFSDFGSLMTMLVSCKKLTEIKFSDSFFQAVPFVASLPNFISLKILNLEGQQFPDEETSEKFAYILGSLSNLEELILPTGDGIYRVAKLIIQQCQQLHCLRVLSFFKTLNDDSVVEIAKVAISGGFQKLENLKLSINHKITEEGYRNFFQALDNMPNLQELDISRHFTECIKAQATTVKSLSQCVLRLPRLIRLNMLSWLLDADDIALLNVMKERHPQSKYLTILQKWILPFSPIIQK | – | – | bound | – | bound | – | –
GST fusion protein containing the RING domain: GST fusion of XIAP amino acids 338–497 (RING domain) (protein, UniProt P98170 338-497, looked up, fragment, GST fusion) YINNIHLTHSLEECLVRTTEKTPSLTRRIDDTIFQNPMVQEAIRMGFSFKDIKKIMEEKIQISGSNYKSLEVLVADLVNAQKDSMQDESSQTSLQKEISTEEQLRRLQEEKLCKICMDRNIAIVFVPCGHLVTCKQCAEAVDKCPMCYTVITFKQKIFMS | had no effect | had no effect | – | – | – | no significant effect | no significant effect
c-IAP-1(BIR): construct comprising the BIR domains of c-IAP-1 (positions 1 to 350) (protein, left off: a dimerising Fc or GST) MHKTASQRLFPGPSYQNIKSIMEDSTILSDWTNSNKQKMKYDFSCELYRMSTYSTFPAGVPVSERSLARAGFYYTGVNDKVKCFCCGLMLDNWKLGDSPIQKHKQLYPSCSFIQNLVSASLGSTSKNTSPMRNSFAHSLSPTLEHSSLFSGSYSSLSPNPLNSRAVEDISSSRTNPYSYAMSTEEARFLTYHMWPLTFLSPSELARAGFYYIGPGDRVACFACGGKLSNWEPKDDAMSEHRRHFPNCPFLENSLETLRFSISNLSMQTHAARMRTFMYWPSSVPVQPEQLASAGFYYVGRNDDVKCFCCDGGLRCWESGDDPWVEHAKWFPRCEFLIRMKGQEFVDEIQG | – | – | bound | inhibited DEVD hydrolysis | bound | – | –
